Data on 25 sequences can be found in the Immune Epitope Database (IEDB).

In general, Kd refers to the equilibrium constant for the complex coming apart.

The target in assay [1] is HLA-A*23:01. The experiment in a line: IEDB peptide-MHC binding, purified MHC/competitive/radioactivity; filed as Kd, often an IC50 or EC50 that approximates it; ≥ and ≤ were set here for values at or beyond the usual limits of such assays.
For assay [2], the target named is HLA-A*24:02. Described as above.
Assay [3] addresses HLA-A*29:02. Described as above.
Assay [4] has as its target HLA-A*30:02. Described as above.
Assay [5] has as its target HLA-A*26:01. The assay is described as above.
Assay [6] has as its target HLA-A*01:01. Described as above.
The target in assay [7] is HLA-A*32:01. The assay is described as above.
For assay [8], the target named is HLA-B*44:02. The description is as above. The settings on record: source organism: Dengue virus 4 Philippines/H241/1956.
In assay [9] the target is HLA-A*26:01. The experiment in a line: IEDB peptide-MHC binding, purified MHC/direct/fluorescence; filed as Kd, often an IC50 or EC50 that approximates it; ≥ and ≤ were set here for values at or beyond the usual limits of such assays.
The target of assay [10] is HLA-B*58:01. The assay is described as above. The settings on record: source organism: SARS-CoV1.
For assay [11], the target named is HLA-A*03:01. The assay is described as above. The settings on record: source organism: SARS-CoV1.
The target of assay [12] is HLA-A*11:01. Described as above. The following applies: source organism: SARS-CoV1.
The target in assay [13] is HLA-B*15:01. The description is as above. The following applies: source organism: SARS-CoV1.
Assay [14] deals with HLA-A*01:01. Described as above. The following applies: source organism: SARS-CoV1.
The mark [15] stands for this setting: source organism: Mammarenavirus lassaense.
Where [16] appears, read: source organism: SARS coronavirus Tor2.
Setting [17] is: source organism: Vaccinia virus WR.
Setting [18] is: source organism: Dengue virus 2 Jamaica/1409/1983.
The mark [19] stands for this setting: source organism: Mammarenavirus machupoense.
Setting [20] is: source organism: Dengue virus 3 Martinique/1243/1999.
Setting [21] is: source organism: Mammarenavirus tacaribeense.
[22] abbreviates: source organism: Dengue virus 4 Philippines/H241/1956.

As for PEDPIEVALY, the Kd is at least 70000 nM in assay [1] (setting [15]); at least 70300 nM in assay [2] (setting [15]); 10100 nM in assay [3] (setting [15]); 1220 nM in assay [4] (setting [15]); at least 69700 nM in [5] (setting [15]); at least 70400 nM in [6] (setting [15]).

Regarding GYKNVRITF, the Kd in assay [1] (setting [16]) is 11000 nM; in assay [2] (setting [16]), 6990 nM; in assay [3] (setting [16]) it was 3700 nM; in [4] (setting [16]), at least 23100 nM; in assay [5] (setting [16]), at least 54100 nM; in assay [6] (setting [16]), at least 78100 nM.

In the case of WFITQRNFF, the Kd is 2730 nM in assay [1] (setting [16]); at least 32500 nM in assay [2] (setting [16]); 13.6 nM in assay [3] (setting [16]); 137 nM in assay [4] (setting [16]); 172 nM in [5] (setting [16]); 1090 nM in [6] (setting [16]).

As for AIMFFPRTI, in assay [7] (setting [17]), the Kd was 1.12 nM.

In the case of AETWMSSEG, in assay [8], the Kd was found to be 425 nM.

Take VTPSGTWLTY: the Kd is at least 49100 nM in assay [1] (setting [16]); at least 57700 nM in [2] (setting [16]); 66.1 nM in assay [3] (setting [16]); 45.3 nM in assay [4] (setting [16]); 392 nM in assay [5] (setting [16]); 66.1 nM in [6] (setting [16]).

As to SQSDTVFDH, the Kd in [1] (source organism: Variola virus) was at least 44400 nM; in assay [2] (source organism: Variola virus), at least 77500 nM; in [3] (source organism: Variola virus), at least 48300 nM; in assay [4] (source organism: Variola virus), at least 76900 nM; in [5] (source organism: Variola virus), at least 77900 nM; in assay [6] (source organism: Variola virus) it was at least 23800 nM.

As to KSLKKVYTF, the Kd in assay [7] (setting [17]) was determined as 0.485 nM.

As to EPILEYVVY, the Kd in [9] (source organism: Francisella tularensis subsp. tularensis FSC033) was 827 nM.

On to VTYELRYTL, for which, in [7] (source organism: Vaccinia virus Copenhagen), the Kd was found to be 11.9 nM.

With LSDDAVVCY, the Kd is 300 nM in assay [10]; 9260 nM in assay [11]; at least 22300 nM in assay [12]; 474 nM in assay [13]; 17.5 nM in [14]; at least 77800 nM in [1] (setting [16]). In addition, the Kd in assay [2] (setting [16]) is at least 77600 nM; in [3] (setting [16]), 1000 nM; in assay [4] (setting [16]), 1450 nM; in [5] (setting [16]) it was at least 80300 nM.

For the sequence SGCVVSWKNK, in [7] (setting [18]), the Kd was determined as 9640 nM.

For the sequence QCGDPSSFEY, the Kd in assay [1] (setting [19]) is at least 68800 nM; in [2] (setting [19]) it was at least 70300 nM; in assay [3] (setting [19]), 600 nM; in assay [4] (setting [19]) it was 1580 nM; in assay [5] (setting [19]), at least 69700 nM; in [6] (setting [19]) it was 500 nM.

With PITAAAWYLW, in [7] (setting [18]), the Kd turned out to be 1680 nM.

On to EMICFHEFL, for which the values for the Kd in assay [1] (setting [19]), in [2] (setting [19]) and in assay [3] (setting [19]) were 6960 nM, at least 40900 nM and 11300 nM, respectively.

As for RMLINRFTM, the Kd in assay [7] (setting [18]) is 95.7 nM.

For FAGKTVWFVP, the Kd in assay [7] (setting [20]) was at least 26600 nM.

For ASISSVLTI, the Kd in assay [7] (setting [17]) stood at 13.3 nM.

Regarding MLMRVAVGI, in assay [7] (setting [17]), the Kd was determined as 0.692 nM.

Take AFNCTFEYI: the Kd in [1] (setting [16]) is 9360 nM; in assay [2] (setting [16]), at least 70300 nM; in assay [3] (setting [16]), 322 nM; in [4] (setting [16]) it was 1400 nM; in assay [5] (setting [16]) it was 86.1 nM; in assay [6] (setting [16]), 1400 nM.

In the case of YCDPKRFFL, the Kd in assay [1] (setting [21]) was 7530 nM; in assay [2] (setting [21]), 11300 nM; in assay [3] (setting [21]) it was at least 78900 nM; in assay [4] (setting [21]) it was at least 76900 nM; in assay [5] (setting [21]), at least 77900 nM; in [6] (setting [21]), at least 29100 nM.

Regarding DFAGKTVWF, the Kd in assay [1] (setting [20]) stood at 6480 nM; in assay [2] (setting [20]) it was 3030 nM.

As to HWVEITALI, the Kd in [1] (setting [22]) is 100 nM; in assay [2] (setting [22]) it was 317 nM.

With LIPLWMAGL, the Kd in assay [9] (source organism: Vibrio vulnificus CMCP6) worked out at 8980 nM.

TGCAVSWSGK: the equilibrium dissociation constant (Kd) in [7] (setting [22]) amounted to 8440 nM.
